Series [1] is described as follows: plasma stability in murine plasma. It counts as in vitro ADME. The note with it: mouse, 37 °C, read-out: Plasma Stability (t1/2 in h) Murine (converted). The method, then: (§1) Plasma stability: The sample preparation and the metabolic analysis of the conjugates was carried out similarly to the previously described method. Shortly, in a 96-well plate each conjugate and the control compound, procaine (3 mM, stock solution in DMSO) in three replicates were diluted with 250 μL of plasma to give a 3 µM concentration and then incubated at 37 °C. At each sample collecting time point, an aliquot of 30 µL was transferred into a 96-deep well plate and the reaction was stopped with 120 µL of acetonitrile containing 0.1% formic acid and 0.4 µg/mL of warfarin as the internal standard (IS). This mixture was centrifuged at 1100 ×g for 30 min at 4 °C and 50 µL of supernatant was transferred into a clean 96 deep-well plate and diluted with 50 µL of 0.1% formic acid in water. The samples were stored at -80 °C until analyses. Stability was determined based on LC-HRMS analysis of the disappearance of the compound as a function of incubation time, while using area ratio (analyte peak area vs internal standard peak area). The elimination constant k is calculated by plotting mean disappearance values on a semi-logarithmic scale and fitting with a best fit linear regression. The half-life (t1/2) expressed in hours is derived using the equation: t1/2 = ln2/(−k).

A short description of series [2]: plasma stability in human plasma. The series is classed as in vitro ADME. The note with it: 37 °C, read-out: Plasma Stability (t1/2 in h) Human (converted). The method, then:
as §1

Series [3] can be described thus: pharmacokinetics after i.v. injection. The series is classed as in vivo. The note with it: 2.5 mg/kg i.v., heterozygous NCR mice. The method, then: Pharmacokinetics: To evaluate the pharmacokinetic profile of conjugate 8 and its fluorescence-labeled analogue 10, four-weeks-old female heterozygous NCR mice from Charles River were used. Animals were intravenously injected with 2.5 mg/kg (in 2% DMSO in water, dosed at 0.5 mg/mL) of each conjugate. Terminal blood samples were collected via cardiac puncture from animals under deep anesthesia at different time points (5, 15, 30, 60, 180, and 360 min, n = 3). The samples were rapidly transferred to lithium heparin-coated tubes, kept on ice, and subsequently centrifuged at 2000 ×g, 4 °C for 10 min. After centrifugation, plasma was collected and the samples were kept at -20 °C until analyses.

On to `COc1ccc(C[C@H]2NC(=O)/C=C/C[C@@H]([C@H](C)[C@@H](OC(=O)CNC(=O)[C@@H]3CCCN3C(=O)CNC(=O)[C@H](CCCNC(N)=O)NC(=O)[C@@H](NC(=O)CCOCCOCCOCCOCCn3cc(CCC(=O)N[C@H](Cc4ccccc4)C(=O)N[C@H]4CSSC[C@@H](C(=O)N[C@H](CO)[C@@H](C)O)NC(=O)[C@H]([C@@H](C)O)NC(=O)[C@H](CCCCN)NC(=O)[C@@H](Cc5c[nH]c6ccccc56)NC(=O)[C@H](Cc5ccccc5)NC4=O)nn3)C(C)C)[C@@H](Cl)c3ccccc3)OC(=O)[C@H](CC(C)C)OC(=O)C(C)(C)CNC2=O)cc1Cl` [compound 8], for which the half-life at 3 µM is more than 24 h in series [1] and 24 h in series [2]. In addition, the “area under the curve (AUC), comparison of 8 with 10” value in series [3] is “higher”. For the same molecule, the half-life in series [3] (female, mouse, plasma, iv, read-out: circulatory half-life) worked out at 1.73 h.

The record behind these values is paper PMC6571972 (Pharmaceutics, 2019).
